Biological target: human EWI-2 wild type with FLAG-tag (FSEC assay) (human) (UniProt Q969P0)
Experiment: SEC; fluorescence-detection size-exclusion chromatography (FSEC): GFP-tagged CD9 and FLAG-tagged EWI-2 co-expressed in HEK293T cells, solubilised in 1% digitonin, supernatant run on Superose 6 Increase in 10 mM HEPES pH 7.0, 150 mM NaCl, 0.1% digitonin; GFP fluorescence monitored

Chain of UniProt Q969P0 (Q969P0 28-613): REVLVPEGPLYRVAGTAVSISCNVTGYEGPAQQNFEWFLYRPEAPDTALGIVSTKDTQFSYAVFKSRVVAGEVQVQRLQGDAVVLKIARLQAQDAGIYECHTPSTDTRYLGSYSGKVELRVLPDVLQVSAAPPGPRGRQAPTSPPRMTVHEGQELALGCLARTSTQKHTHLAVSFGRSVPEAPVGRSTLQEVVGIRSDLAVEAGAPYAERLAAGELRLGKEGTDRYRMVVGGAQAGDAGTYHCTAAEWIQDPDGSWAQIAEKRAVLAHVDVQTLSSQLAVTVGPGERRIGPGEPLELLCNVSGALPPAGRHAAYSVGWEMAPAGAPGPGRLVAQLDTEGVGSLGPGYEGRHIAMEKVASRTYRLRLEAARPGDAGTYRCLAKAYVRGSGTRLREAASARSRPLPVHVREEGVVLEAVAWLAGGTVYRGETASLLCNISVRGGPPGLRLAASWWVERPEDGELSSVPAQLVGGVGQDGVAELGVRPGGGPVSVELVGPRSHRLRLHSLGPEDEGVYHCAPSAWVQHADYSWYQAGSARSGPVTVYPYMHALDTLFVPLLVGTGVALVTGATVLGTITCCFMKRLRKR

CD9-CD53LEL (CD9 with its LEL region exchanged with that of CD53)
stoichiometry N (EWI-2 per CD9): 2
